Measured values taken from patent publication US20030152571A1.

Key:
[1] = target: human vitronectin receptor αvβ3 purified from human placenta (human) (UniProt P06756); experiment: ORIGEN competition: αvβ3-biotin (1 ug/ml) preincubated with unlabeled antibody, then 1 ug/ml Tag-LM609
[2] = target: human vitronectin receptor αvβ3 purified from human placenta (human) (UniProt P06756); experiment: BIAcore; immobilized αvβ3, mAb in solution
[3] = target: rabbit αvβ3 receptor on rabbit smooth muscle cells (rabbit); experiment: cell-based or functional assay
[4] = target: human vitronectin receptor αvβ3 purified from human placenta (human) (UniProt P06756); experiment: BIAcore, αvβ3 immobilized in a hybrid bilayer membrane on the sensor surface, mAb in solution
[5] = target: human vitronectin receptor αvβ3 purified from human placenta (human) (UniProt P06756); experiment: competition: 1 ug/ml αvβ3 preincubated with unlabeled antibody, then binding of 1 ug/ml D12
[6] = target: human vitronectin receptor αvβ3 purified from human placenta (human) (UniProt P06756); experiment: BIAcore; αvβ3 in a hybrid bilayer membrane on the sensor, mAb at 100, 25, 6 nM in triplicate

- % Inhibition at 0.1 ug/ml [1]: 3%
- % Inhibition at 1 ug/ml [1]: 41%
- % Inhibition at 10 ug/ml [1]: 79%
- Kd [2]: 3.8 nM
- Inhib (%) R-SMC (50 mg/ml) [3]: 43%
- koff [4]: 0.00051 s⁻¹
- kon [4]: 1.1e+06 M⁻¹ s⁻¹
- % Inhibition at 0.1 ug/ml [5]: 3%
- % Inhibition at 1 ug/ml [5]: 29%
- % Inhibition at 10 ug/ml [5]: 68%
- Kd [6]: 0.46 nM
Substance: murine monoclonal antibody LM609
